Substitutions are numbered along the chain they refer to. In names and notes the source's numbering stands.
T1: EsCas13d, nuclease-dead (Eubacterium siraeum, UniProt B0MS50, R295A;H300A;R849A;H854A)
T1 sequence: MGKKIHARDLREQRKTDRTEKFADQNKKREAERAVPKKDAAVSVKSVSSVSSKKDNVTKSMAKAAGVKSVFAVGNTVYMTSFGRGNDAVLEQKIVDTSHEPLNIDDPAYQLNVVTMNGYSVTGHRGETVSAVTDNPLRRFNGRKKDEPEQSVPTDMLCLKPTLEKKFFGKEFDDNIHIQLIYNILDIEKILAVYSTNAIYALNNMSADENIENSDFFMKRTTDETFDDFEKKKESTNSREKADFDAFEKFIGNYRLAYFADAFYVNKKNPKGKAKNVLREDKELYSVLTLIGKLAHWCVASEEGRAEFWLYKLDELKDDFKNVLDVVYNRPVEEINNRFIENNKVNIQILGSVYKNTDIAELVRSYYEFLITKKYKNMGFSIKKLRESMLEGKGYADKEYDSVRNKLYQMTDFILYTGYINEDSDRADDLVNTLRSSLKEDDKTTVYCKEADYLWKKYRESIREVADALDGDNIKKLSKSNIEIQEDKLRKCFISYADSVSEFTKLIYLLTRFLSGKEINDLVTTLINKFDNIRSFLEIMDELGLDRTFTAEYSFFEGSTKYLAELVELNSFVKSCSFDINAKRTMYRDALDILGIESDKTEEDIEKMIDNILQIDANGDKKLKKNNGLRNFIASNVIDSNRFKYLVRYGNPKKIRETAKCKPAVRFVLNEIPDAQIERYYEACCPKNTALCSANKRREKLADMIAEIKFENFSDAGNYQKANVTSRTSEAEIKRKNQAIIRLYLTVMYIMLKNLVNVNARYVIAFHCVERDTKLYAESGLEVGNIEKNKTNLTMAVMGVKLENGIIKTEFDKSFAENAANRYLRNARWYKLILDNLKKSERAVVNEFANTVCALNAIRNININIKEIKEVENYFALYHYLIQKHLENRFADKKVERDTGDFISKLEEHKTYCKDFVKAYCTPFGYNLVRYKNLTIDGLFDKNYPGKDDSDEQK

B1: target 1 insG 3' of 22,insC 3' of 1 (mixed)
RNA 1: CACCCGUGCAAAAAUGCAGGGGUCUAAAACUGAGCGGAUAACCUCUCUAUGG
RNA 2: GGGAAUGGAUCCACAUCUACGAAUUCGUACGCAUAGAGAGGUUAUCCGCUCACCCGAGAUCGGAAGAGCACACGU
B2: target 1 insU 3' of 6,insG 3' of 4 (mixed)
RNA 1: B1 RNA 1
RNA 2: GGGAAUGGAUCCACAUCUACGAAUUCGUACCAUAGAGAGGUUAUCCUGCGUCACCGAGAUCGGAAGAGCACACGU
B3: target 1 A1C,U10C (mixed)
RNA 1: B1 RNA 1
RNA 2: GGGAAUGGAUCCACAUCUACGAAUUCGUACCAUAGAGAGGUCAUCCGCUCCCCGAGAUCGGAAGAGCACACGU
B4: target 1 insU 3' of 9,insA 3' of 2 (mixed)
RNA 1: B1 RNA 1
RNA 2: B2 RNA 2 with C45U, U47C, G50U, U51C, C52A
B5: target 1 insA 3' of 21,insG 3' of 14 (mixed)
RNA 1: B1 RNA 1
RNA 2: GGGAAUGGAUCCACAUCUACGAAUUCGUACCAAUAGAGAGGGUUAUCCGCUCACCGAGAUCGGAAGAGCACACGU
B6: target 1 del13,del22 (mixed)
RNA 1: B1 RNA 1
RNA 2: GGGAAUGGAUCCACAUCUACGAAUUCGUACAUAGAGAGUUAUCCGCUCACCGAGAUCGGAAGAGCACACGU
B7: target 1 insC 3' of 20,insG 3' of 8 (mixed)
RNA 1: B1 RNA 1
RNA 2: B5 RNA 2 with A33C, G42U, U44A, A45U, U46G
B8: target 1 insA 3' of 22,insU 3' of 20 (mixed)
RNA 1: B1 RNA 1
RNA 2: B5 RNA 2 with C31A, A32C, A35U, G36A, A37G, G38A, A39G, G40A
B9: target 1 insG 3' of 22,insA 3' of 2 (mixed)
RNA 1: B1 RNA 1
RNA 2: B1 RNA 2 with C53A
B10: target 1 insG 3' of 19,insG 3' of 7 (mixed)
RNA 1: B1 RNA 1
RNA 2: B5 RNA 2 with A33U, U34G, G42U, U44A, A45U, U46C, C47G
B11: target 1 insU 3' of 18,insG 3' of 2 (mixed)
RNA 1: B1 RNA 1
RNA 2: B1 RNA 2 with G31C, C32A, A33U, U34A, A35U, A52G, C53A
B12: target 1 G12U,G17C (mixed)
RNA 1: B1 RNA 1
RNA 2: B3 RNA 2 with G35C, G40U, C42U, C51A
B13: target 1 C6A,A20U (mixed)
RNA 1: B1 RNA 1
RNA 2: B3 RNA 2 with A32U, C42U, C46A, C51A
B14: target 1 U10C (mixed)
RNA 1: B1 RNA 1
RNA 2: B3 RNA 2 with C51A
B15: target 1 U3C,C7G (mixed)
RNA 1: B1 RNA 1
RNA 2: B3 RNA 2 with C42U, C45G, U49C, C51A
B16: target 1 insC 3' of 11,insU 3' of 2 (mixed)
RNA 1: B1 RNA 1
RNA 2: B2 RNA 2 with U42C, A43U, U44A, C45U, U47C, G50U, U51C, C52U
B17: target 1 C4A,U19G (mixed)
RNA 1: B1 RNA 1
RNA 2: B3 RNA 2 with U33G, C42U, C48A, C51A
B18: target 1 del9 (mixed)
RNA 1: B1 RNA 1
RNA 2: GGGAAUGGAUCCACAUCUACGAAUUCGUACCAUAGAGAGGUUUCCGCUCACCGAGAUCGGAAGAGCACACGU
B19: target 1 C7U,U10C (mixed)
RNA 1: B1 RNA 1
RNA 2: B3 RNA 2 with C45U, C51A
B20: target 1 A1G,U10C (mixed)
RNA 1: B1 RNA 1
RNA 2: B3 RNA 2 with C51G
B21: target 1 C2U,U19C (mixed)
RNA 1: B1 RNA 1
RNA 2: B3 RNA 2 with U33C, C42U, C50U, C51A
B22: target 1 insU 3' of 15,insC 3' of 8 (mixed)
RNA 1: B1 RNA 1
RNA 2: GGGAAUGGAUCCACAUCUACGAAUUCGUACCAUAGAGUAGGUUAUCCCGCUCACCGAGAUCGGAAGAGCACACGU
B23: target 1 U10A,A16G (mixed)
RNA 1: B1 RNA 1
RNA 2: B3 RNA 2 with A36G, C42A, C51A
B24: target 1 insU 3' of 14,insG 3' of 6 (mixed)
RNA 1: B1 RNA 1
RNA 2: B22 RNA 2 with U38A, A39U, C48G
B25: target 1 insG 3' of 11,insG 3' of 10 (mixed)
RNA 1: B1 RNA 1
RNA 2: B22 RNA 2 with U38A, A39G, G41U, U42G, A44G, U45A, C46U
B26: target 1 insG 3' of 6,insU 3' of 6 (mixed)
RNA 1: B1 RNA 1
RNA 2: B2 RNA 2 with U47G, G48U, C49G, G50C
B27: target 1 U8C,U10A (mixed)
RNA 1: B1 RNA 1
RNA 2: B3 RNA 2 with C42A, U44C, C51A
B28: target 1 U3G,A9G (mixed)
RNA 1: B1 RNA 1
RNA 2: B3 RNA 2 with C42U, A43G, U49G, C51A
B29: target 1 U8C,G13U (mixed)
RNA 1: B1 RNA 1
RNA 2: B3 RNA 2 with G39U, C42U, U44C, C51A
B30: target 1 A1U,U10C (mixed)
RNA 1: B1 RNA 1
RNA 2: B3 RNA 2 with C51U
B31: target 1 C6G,U19G (mixed)
RNA 1: B1 RNA 1
RNA 2: B3 RNA 2 with U33G, C42U, C46G, C51A
B32: target 1 A20U,C22U (mixed)
RNA 1: B1 RNA 1
RNA 2: B3 RNA 2 with C30U, A32U, C42U, C51A
B33: target 1 C4U,U8A (mixed)
RNA 1: B1 RNA 1
RNA 2: B3 RNA 2 with C42U, U44A, C48U, C51A

target: T1, EsCas13d, nuclease-dead; experiment: crRNA (strand 1, pre-loaded); Mg2+; 40 mM Tris-HCl pH 7.5, 150 mM NaCl, 6 mM MgCl2, 1 mM DTT, 0.1% Tween-20, 0.2 mg/ml BSA; 25 C; 10 min per concentration, then washed; settings: tags: His6-TwinStrep-SUMO cleaved; N-terminal SNAP kept (SNAP-Surface 488); label: 3' end held by stalled T7 RNA polymerase

**Q.** For B1, which Kd is on record?
**A.** The Kd was 25.6 ± 1.6 nM.

**Q.** With B2 as the binder, how does the Kd read?
**A.** The Kd was 7.21 ± 0.28 nM.

**Q.** B3 was tested. Which Kd did it give?
**A.** The Kd was 22.2 ± 2.9 nM.

**Q.** B4 was tested. Which Kd did it give?
**A.** Its Kd is 19.8 ± 1.9 nM.

**Q.** Which Kd does the source give for B5 here?
**A.** The Kd was 23.8 ± 2.3 nM.

**Q.** For B6, which Kd is on record?
**A.** The Kd was 30.9 ± 3 nM.

**Q.** B7 was tested. Which Kd did it give?
**A.** Its Kd is 8.6 ± 0.4 nM.

**Q.** B8 was tested. Which Kd did it give?
**A.** Its Kd is 16.7 ± 1 nM.

**Q.** How did the Kd turn out when B9 was run?
**A.** The Kd was 28.8 ± 2.3 nM.

**Q.** With B10 as the binder, how does the Kd read?
**A.** The Kd was 46 ± 4 nM.

**Q.** With B11 as the binder, how does the Kd read?
**A.** Its Kd is 26.4 ± 1.7 nM.

**Q.** With B12 as the binder, how does the Kd read?
**A.** Its Kd is about 43 nM.

**Q.** With B13 as the binder, how does the Kd read?
**A.** Its Kd is 35.2 ± 2.1 nM.

**Q.** With B14 as the binder, how does the Kd read?
**A.** Its Kd is 18 ± 1.1 nM.

**Q.** B15 was tested. Which Kd did it give?
**A.** Its Kd is 8.47 ± 0.27 nM.

**Q.** How did the Kd turn out when B16 was run?
**A.** The Kd was 73 ± 21 nM.

**Q.** For B17, which Kd is on record?
**A.** Its Kd is 49 ± 19 nM.

**Q.** With B18 as the binder, how does the Kd read?
**A.** Its Kd is 11.5 ± 0.6 nM.

**Q.** For B19, which Kd is on record?
**A.** Its Kd is 20.9 ± 1.5 nM.

**Q.** B20 was tested. Which Kd did it give?
**A.** Its Kd is 17.3 ± 0.9 nM.

**Q.** How did the Kd turn out when B21 was run?
**A.** The Kd was 21.2 ± 1.5 nM.

**Q.** B22 was tested. Which Kd did it give?
**A.** Its Kd is 42 ± 6 nM.

**Q.** With B23 as the binder, how does the Kd read?
**A.** Its Kd is 38.4 ± 2.1 nM.

**Q.** With B24 as the binder, how does the Kd read?
**A.** Its Kd is 40 ± 6 nM.

**Q.** B25 was tested. Which Kd did it give?
**A.** The Kd was 30 ± 4 nM.

**Q.** For B26, which Kd is on record?
**A.** Its Kd is 9.9 ± 0.7 nM.

**Q.** For B27, which Kd is on record?
**A.** Its Kd is 11 ± 0.5 nM.

**Q.** For B28, which Kd is on record?
**A.** Its Kd is 8.3 ± 0.8 nM.

**Q.** Which Kd does the source give for B29 here?
**A.** Its Kd is 61 ± 11 nM.

**Q.** B30 was tested. Which Kd did it give?
**A.** Its Kd is 20 ± 1.7 nM.

**Q.** B31 was tested. Which Kd did it give?
**A.** The Kd was 42 ± 5 nM.

**Q.** How did the Kd turn out when B32 was run?
**A.** Its Kd is 45 ± 8 nM.

**Q.** B33 was tested. Which Kd did it give?
**A.** Its Kd is 19 ± 1.1 nM.

From publication PMC10786891, “Massively parallel profiling of RNA-targeting CRISPR-Cas13d”
